Test [1] deals with Human death receptor 5 (DR5/TRAIL-R2) on cancer cells (human, UniProt O14763 56-440). Kind of test: cell-based or functional assay.
Test [2] has as its target Human folate receptor alpha-1 (FOLR1) on ovarian cancer cells (human, UniProt P15328 25-234). The test is described as follows: cell-based or functional assay.
Test [3] addresses T1, Recombinant DR5 (rDR5), extracellular domain of DR5/TRAIL-R2 fused to IgG4-Fc.
T1 construct: It was biotinylated for BLI; also called rDR5-IgG4; DR5-Fc
The test is described as follows: ELISA on coated rDR5-IgG4-Fc (FIG. 12D).
Description: (D) IgG4-Fc tagged rDR5 receptor was coated in 96 well plates overnight.
Binding specificity and affinity of various described IgG1 subclasses were determined by ELISA using the recombinant extracellular domain of FOLR1 and/or DR5/TRAIL-R2. For coating 96-well ELISA plates (Olympus), the protein solutions (2 μg/ml) were prepared in coating buffer (100 mM Sodium Bicarbonate pH 9.2) and 100 μl was distributed in each well. The plates were then incubated overnight at 4° C. Next day, the unbound areas were blocked by cell culture media containing 10% FBS, 1% BSA and 0.5% sodium azide for 2 hr at room temperature. […] After washing with PBS solution containing 0.1% Tween20, the plates were incubated for 1 hr with horseradish peroxidase (HRP) conjugated anti-human IgG1 (Thermo Scientific, A10648). Detection was performed using a two-component peroxidase substrate kit (BD biosciences) and the reaction was stopped with the addition of 2 N Sulfuric acid. Absorbance at 450 nm was immediately recorded using a Synergy Spectrophotometer (BioTech), and background absorbance from negative control samples was subtracted. The antibody affinities (Kd) were calculated by non-linear regression analysis using GraphPad Prism software.

Here are results for two molecules from US20200283537A1 (UNIVERSITY OF VIRGINIA PATENT FOUNDATION, published 2020).

Sequence of Human folate receptor alpha-1 (FOLR1) on ovarian cancer cells (P15328 25-234): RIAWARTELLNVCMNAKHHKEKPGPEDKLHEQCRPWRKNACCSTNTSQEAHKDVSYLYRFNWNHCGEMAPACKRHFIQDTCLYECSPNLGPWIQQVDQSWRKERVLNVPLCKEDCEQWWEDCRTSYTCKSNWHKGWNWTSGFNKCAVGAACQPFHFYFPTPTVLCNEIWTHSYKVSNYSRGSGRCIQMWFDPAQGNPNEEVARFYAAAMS

B1: BaCa-1 (Bispecific-Anchored Cytotoxicity-Activator-1; farletuzumab IgG1 with a lexatumumab scFv at the C-terminus of the heavy chain) (bispecific antibody)
heavy: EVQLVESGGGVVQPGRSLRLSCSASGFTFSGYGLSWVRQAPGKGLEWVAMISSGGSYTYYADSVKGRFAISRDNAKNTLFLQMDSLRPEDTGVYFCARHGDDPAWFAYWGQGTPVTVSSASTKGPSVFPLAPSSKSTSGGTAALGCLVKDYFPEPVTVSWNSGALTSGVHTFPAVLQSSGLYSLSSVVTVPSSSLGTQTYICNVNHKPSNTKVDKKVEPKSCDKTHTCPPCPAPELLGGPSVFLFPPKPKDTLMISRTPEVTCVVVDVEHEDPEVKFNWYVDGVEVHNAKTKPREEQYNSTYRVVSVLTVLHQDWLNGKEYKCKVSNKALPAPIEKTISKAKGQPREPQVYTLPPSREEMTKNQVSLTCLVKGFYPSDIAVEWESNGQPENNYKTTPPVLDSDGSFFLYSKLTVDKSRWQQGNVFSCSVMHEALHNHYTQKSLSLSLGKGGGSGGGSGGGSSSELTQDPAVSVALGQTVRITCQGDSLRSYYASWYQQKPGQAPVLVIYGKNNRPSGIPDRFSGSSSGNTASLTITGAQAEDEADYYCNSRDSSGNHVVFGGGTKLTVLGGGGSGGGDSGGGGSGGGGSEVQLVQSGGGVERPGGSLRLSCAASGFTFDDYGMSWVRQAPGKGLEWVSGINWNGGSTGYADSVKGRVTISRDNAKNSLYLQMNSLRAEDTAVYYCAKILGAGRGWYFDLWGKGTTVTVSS
light: DIQLTQSPSSLSASVGDRVTITCSVSSSISSNNLHWYQQKPGKAPKPWIYGTSNLASGVPSRFSGSGSGTDYTFTISSLQPEDIATYYCQQWSSYPYMYTFGQGTKVEIKRTVAAPSVFIFPPSDEQLKSGTASVVCLLNNFYPREAKVQWKVDNALQSGNSQESVTEQDSKDSTYSLSSTLTLSKADYEKHKVYACEVTHQGLSSPVTKSFNRGEC
Consider B1, for which the “IC50 of cell viability, Colo-205 cells” value in test [1] turned out to be 3.07 nM. In addition, the “cell killing, OVCAR-4 (high FOLR1) over Colo-205 (low FOLR1) cells” value in test [2] is approximately 70 fold.

B2: BaCa antibody labelled with IRDye 800CW (bispecific antibody, human IgG1, kappa)
heavy: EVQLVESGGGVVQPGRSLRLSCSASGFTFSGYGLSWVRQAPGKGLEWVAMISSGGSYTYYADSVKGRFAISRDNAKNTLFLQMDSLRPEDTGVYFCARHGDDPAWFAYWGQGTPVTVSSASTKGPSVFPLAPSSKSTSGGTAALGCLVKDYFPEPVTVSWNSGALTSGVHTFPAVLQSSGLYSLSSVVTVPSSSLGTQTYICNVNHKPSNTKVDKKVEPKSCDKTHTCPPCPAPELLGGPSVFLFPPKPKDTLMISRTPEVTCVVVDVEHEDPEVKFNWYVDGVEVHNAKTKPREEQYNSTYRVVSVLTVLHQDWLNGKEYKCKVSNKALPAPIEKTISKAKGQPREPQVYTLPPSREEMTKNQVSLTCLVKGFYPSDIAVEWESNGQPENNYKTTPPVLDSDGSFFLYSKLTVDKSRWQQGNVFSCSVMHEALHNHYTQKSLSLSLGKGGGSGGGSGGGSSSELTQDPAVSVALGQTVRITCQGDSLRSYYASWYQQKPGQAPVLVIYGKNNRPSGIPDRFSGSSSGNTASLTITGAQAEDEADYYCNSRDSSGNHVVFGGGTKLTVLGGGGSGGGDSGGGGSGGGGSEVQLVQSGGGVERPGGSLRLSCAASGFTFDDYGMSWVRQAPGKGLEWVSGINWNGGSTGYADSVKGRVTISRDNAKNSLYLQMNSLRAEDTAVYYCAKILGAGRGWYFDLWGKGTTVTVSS
light: DIQLTQSPSSLSASVGDRVTITCSVSSSISSNNLHWYQQKPGKAPKPWIYGTSNLASGVPSRFSGSGSGTDYTFTISSLQPEDIATYYCQQWSSYPYMYTFGQGTKVEIKRTVAAPSVFIFPPSDEQLKSGTASVVCLLNNFYPREAKVQWKVDNALQSGNSQESVTEQDSKDSTYSLSSTLTLSKADYEKHKVYACEVTHQGLSSPVTKSFNRGEC
modifications: IRDye 800CW NHS Ester label; sites not stated; IRDye 800CW NHS Ester label (0.04 mg dye per 1 mg of antibodies); sites not stated
notes: Lead BaCa (BaCa-1/HuBaCa), dye-conjugated; also called BaCa-IR800; IR800 labeled BaCa
As to B2, the binding result in test [3] is recorded as “binds”.
